Measurements: publication PMC6054995

Biological target: Marchantia polymorpha 3-phosphoglycerate dehydrogenase, recombinant, without the transit peptide (Marchantia polymorpha)
Test: SEC; HiPrep 16/60 Sephacryl S-300 HR, 0.5 mL/min, 100 mM sodium phosphate buffer (pH 9.0); mass estimated from a standard curve of thyroglobulin, apoferritin, beta-amylase, albumin and carbonic anhydrase

- stoichiometry N: 4
Substance: Marchantia polymorpha 3-phosphoglycerate dehydrogenase, recombinant, without the transit peptide (enzyme)
